Data taken from publication PMC11634010.

Biological target: 92BR020 SOSIP gp140 trimer (stabilized pre-fusion HIV-1 envelope glycoprotein, SOSIP v.7) (HIV-1 subtype B strain 92BR020)
Assay: negative-stain electron microscopy; SOSIP proteins diluted in Tris-buffered saline to ~0.02 mg/mL, adsorbed onto carbon-coated copper grids, stained with 2% uranyl formate; 2D classification compared with published well-folded SOSIP trimers

Substance: 92BR020 SOSIP gp140 trimer (stabilized pre-fusion HIV-1 envelope glycoprotein, SOSIP v.7) (natural protein)
- stoichiometry N: 3
